Measured values reported in patent publication US20210079054A1 (published 2021).

How the values were obtained:
[1] = target: T1, recombinant human IL-31 protein (UniProt Q6EBC2 24-164); experiment: inhibition of IL-31/IL-31Rα interaction (ELISA); polyclonal IgG
T1 chain: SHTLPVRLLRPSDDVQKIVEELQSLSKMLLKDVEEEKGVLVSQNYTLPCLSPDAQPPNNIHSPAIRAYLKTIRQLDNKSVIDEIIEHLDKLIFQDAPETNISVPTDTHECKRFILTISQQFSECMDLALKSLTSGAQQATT

[2] = target: recombinant canine IL-31 protein with C-terminal 6-His tag, secreted from Expi293 cells (canine); experiment: cell-based or functional assay
Sequence of recombinant canine IL-31 protein with C-terminal 6-His tag, secreted from Expi293 cells (canine) (chain, as listed by the source, form in doubt): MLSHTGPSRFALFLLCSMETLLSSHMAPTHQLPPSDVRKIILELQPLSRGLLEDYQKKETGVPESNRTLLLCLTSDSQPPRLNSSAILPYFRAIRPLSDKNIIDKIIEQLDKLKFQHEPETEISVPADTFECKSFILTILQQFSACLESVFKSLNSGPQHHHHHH

B1: SEQ ID NO: 87 (protein)
chain: ISITEIKGVIVHRIETILFKKKKLDNKSVIDEIIEHLDKLIFQDAPETNISVPTDTHECKRFILTISQQFS
IC50 [1]: 0.277 mg/L

B2: SEQ ID NO: 99 (protein)
chain: ISITEIKGVIVHRIETILFKKKKAIRAYLKTIRQLDNKSVIDEIIEHLDKLIFQDAPETNISVPTDTHECKRFILTISQQFSESMDL
IC50 [1]: 1.23 mg/L

B3: Cytopoint (anti-IL-31 mAb), monoclonal antibody to canine IL-31 (antibody, INN chains, looked up, V domains shown)
VH: EVQLVESGGDLVKPGGSLRLSCVASGFTFSNYGMSWVRQAPGKGLQWVATISYGGSYTYYPDNIKGRFTISRDNAKNTLYLQMNSLRAEDTAMYYCVRGYGYDTMDYWGQGTLVTVSS
VL: EIVMTQSPASLSLSQEEKVTITCKASQSVSFAGTGLMHWYQQKPGQAPKLLIYRASNLEAGVPSRFSGSGSGTDFSFTISSLEPEDVAVYYCQQSREYPWTFGQGTKLEIK
IC50 of signaling inhibition (canine IL-31 induced pSTAT in DH82 monocytes) [2]: 3.21 µg/mL | inhibition of IL-31-induced pSTAT3 signaling phosphorylation [2]: 50 to 75%
